Experimental data: IntAct's records for PubMed 21293379

Molecular target: nsd2_human NSD2 (UniProt O96028)
UniProt O96028, sequence (O96028 whole entry): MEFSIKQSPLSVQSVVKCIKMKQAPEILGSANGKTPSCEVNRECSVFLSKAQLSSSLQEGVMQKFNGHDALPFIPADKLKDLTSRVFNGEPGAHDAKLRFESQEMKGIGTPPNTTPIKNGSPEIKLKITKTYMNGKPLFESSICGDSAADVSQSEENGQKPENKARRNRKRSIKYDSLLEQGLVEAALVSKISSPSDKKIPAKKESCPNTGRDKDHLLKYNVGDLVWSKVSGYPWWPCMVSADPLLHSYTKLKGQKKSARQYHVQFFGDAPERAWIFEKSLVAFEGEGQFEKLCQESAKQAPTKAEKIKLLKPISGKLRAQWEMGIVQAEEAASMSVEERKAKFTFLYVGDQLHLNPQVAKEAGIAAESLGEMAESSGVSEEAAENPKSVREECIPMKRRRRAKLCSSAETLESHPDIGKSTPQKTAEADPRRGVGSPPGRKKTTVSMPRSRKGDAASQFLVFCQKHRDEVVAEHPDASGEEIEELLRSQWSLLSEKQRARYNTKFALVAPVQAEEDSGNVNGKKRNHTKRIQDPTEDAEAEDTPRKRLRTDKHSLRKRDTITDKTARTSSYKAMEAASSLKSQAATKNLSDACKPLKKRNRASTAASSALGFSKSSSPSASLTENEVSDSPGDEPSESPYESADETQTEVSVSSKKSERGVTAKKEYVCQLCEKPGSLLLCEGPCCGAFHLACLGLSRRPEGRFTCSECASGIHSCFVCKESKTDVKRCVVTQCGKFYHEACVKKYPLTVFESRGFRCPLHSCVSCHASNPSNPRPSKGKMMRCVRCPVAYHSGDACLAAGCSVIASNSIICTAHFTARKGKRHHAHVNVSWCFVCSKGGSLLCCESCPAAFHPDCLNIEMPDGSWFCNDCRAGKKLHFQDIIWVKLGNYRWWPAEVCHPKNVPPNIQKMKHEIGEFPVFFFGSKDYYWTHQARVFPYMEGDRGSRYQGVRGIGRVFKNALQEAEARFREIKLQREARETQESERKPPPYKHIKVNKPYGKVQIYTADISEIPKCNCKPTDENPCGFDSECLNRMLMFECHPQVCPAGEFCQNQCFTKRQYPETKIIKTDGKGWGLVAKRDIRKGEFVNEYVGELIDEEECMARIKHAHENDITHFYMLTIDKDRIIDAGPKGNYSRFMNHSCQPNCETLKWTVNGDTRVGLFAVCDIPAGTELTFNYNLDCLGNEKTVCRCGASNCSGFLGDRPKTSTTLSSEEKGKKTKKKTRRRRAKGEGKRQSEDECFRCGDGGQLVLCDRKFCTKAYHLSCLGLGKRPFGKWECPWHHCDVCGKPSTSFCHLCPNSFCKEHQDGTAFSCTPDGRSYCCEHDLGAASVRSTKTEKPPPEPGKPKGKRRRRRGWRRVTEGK

## Mediator of DNA damage checkpoint protein 1 (Homo sapiens), Q14676 K1936M
  effect of a mutation on the interaction: disrupting interaction
